Drawing on PMC12477886, this text covers stoichiometry N for 1 substance.

This assay deals with SARS-CoV-2 WA1/2020 S2 protein (stabilized prefusion spike S2 trimer) (SARS-CoV-2 (USA-WA1/2020)) (UniProt P0DTC2). In words: cryo-EM structure.

As to “SARS-CoV-2 WA1/2020 S2 protein (stabilized prefusion spike S2 trimer) (from UniProt P0DTC2) (domain or fragment)”, the stoichiometry N – broadly, a count of units in the complex or per binding partner – is 3.
